Assay results: US8450280B2, “Activation of peptide prodrugs by hK2” (GenbSpera, Inc., priority 1999, dated 2013)

Tests used:
Test in all cases: Kinetic constants of AMC substrate hydrolysis by hK2
Assay type in all cases: biochemical, human
Settings in all cases: other: 50 mM Tris pH 7.5, 0.1 M NaCl, 0.2% BSA, 37° C., Lineweaver-Burk
[1] = test system: T1, Cc1cc(=O)oc2cc(NC(=O)[C@H](CCCNC(=N)N)NC(=O)[C@H](Cc3ccccc3)NC(=O)[C@@H]3CCCN3)ccc12
T1 construct: made in house
Method: (§1) The measurements were done with Fluoroscan II (Labsystems, Helsinki, Finland) using a 355 nm excitation filter and a 460 nm emission filter. The fluorescence of 7-amino-4-methylcoumarin (AMC) (Sigma, St. Louis, Mo., USA) was determined to be 700 FIU/nmol and this value was used in the calculations of the rate of product formation. Unless otherwise indicated all final analyses were performed in 200 μl of the buffer 50 mM Tris pH 7.5, 0.1 M NaCl, and 0.2% BSA at 37° C. using 1.6 pmol hK2. BSA was added to the reaction mixture in order to minimize adsorption of the enzyme to the walls of the microtiter wells. The amount of hK2 was quantified by a commercial PSA immunoassay (Prostatus, Wallac, Turku, Finland) with the Mabs H1 17 and H50 which recognize PSA and hK2 equally well (Lovgren et al., Biochem. Biophys. Res. Co., 213, 888-895 (1995)). Under the conditions described, 1.6 pmol of the hK2 preparation cleaved 50 pmol/min of the 100 μM substrate Pro-Phe-Arg-AMC (SEQ ID NO: 55). During the 20 minute measurement time the consumption of the substrates is <7% of their total amount and was not considered to affect the reaction rate. Initial analysis of the substrates were performed with 3.2 pmol hK2 at a substrate concentration of 250 μM. Km value for the substrates cleaved by hK2 at these conditions were determined using at least four substrate concentrations ranging from 0.2×Km to 5×Km. The Km and kcat values were calculated from Lineweaver-Burk plots.
(§2) Substrates ending in either arginine or lysine were tested. […] However, no hydrolysis of Arg-Gln-Arg-Arg-AMC (SEQ ID NO: 63) was detected. […] As with the semenogelins, hK2 also here cleaves substrates with Arg at position P1 and preferentially a large residue or another Arg at position P2. None of the substrates with lysine in the C-terminal position were cleaved.
(§3) The activity listed in Table 1 is hydrolytic activity of hK2 with 100 μM substrate in relation to the hydrolytic activity of hK2 with 100 μM of the tissue kallikrein substrate H-Pro-Phe-Arg-AMC (SEQ ID NO: 55). The entry “NR” means that no reaction was detected.

[2] = test system: T2, Cc1cc(=O)oc2cc(NC(=O)[C@H](CCCNC(=N)N)NC(=O)[C@H](CCCNC(=N)N)NC(=O)[C@H](C)NC(=O)OCc3ccccc3)ccc12
T2 construct: made in house
Method: as §1, §2, §3

[3] = test system: T3, Cc1cc(=O)oc2cc(NC(=O)[C@H](CCCNC(=N)N)NC(=O)[C@@H]3CCCN3C(=O)[C@@H](NC(=O)OC(C)(C)C)C(C)C)ccc12
T3 construct: made in house
Method: as §1, §2, §3

[4] = test system: T4, Cc1cc(=O)oc2cc(NC(=O)[C@H](CCCNC(=N)N)NC(=O)[C@H](CC(C)C)NC(=O)[C@H](CC(C)C)NC(=O)OCc3ccccc3)ccc12
T4 construct: made in house
Method: as §1, §2, §3

Substance: recombinant hK2 (Homo sapiens)
- Km [1]: 40 µM
- kcat [1]: 0.917 s⁻¹
- kcat/Km [1]: 22900 M⁻¹ s⁻¹
- Km [2]: 20 µM
- kcat [2]: 0.12 s⁻¹
- kcat/Km [2]: 6000 M⁻¹ s⁻¹
- Km [3]: 48 µM
- kcat [3]: 0.0267 s⁻¹
- kcat/Km [3]: 567 M⁻¹ s⁻¹
- Km [4]: 71 µM
- kcat [4]: 0.04 s⁻¹
- kcat/Km [4]: 567 M⁻¹ s⁻¹
